Where no end group is shown, it is not given here.

Holding throughout (assay type): physicochemical
Data set [1] in a line: Particle size of self-assembled nanoparticles (TEM). As to conditions: for Particle Size: particles self-assembled from the conjugate, Table 1. How it is done:
Lyophilized peptide-polymer conjugates were dissolved in phosphate buffer (pH=8) at a concentration of 10 mg/ml (˜1.5 mM). Upon sonication for 30 s, solutions were diluted to 1 mg/ml (0.15 mM) or 0.1 mg/ml in phosphate buffer (pH=8). 5 μl of the diluted peptide solution were applied to a discharged holey carbon-coated copper grid (Ted Pella Cu 400 mesh 01824) for 4 minutes before absorbing off excess solution using filter paper (Whatman filter paper 1). The sample on the grid was negatively stained with a 5 μl 2% (w/v) phosphotungstic acid (adjusted to pH=3.3 with 1 M NaOH) for 2 minutes. Excess stain solution was wicked off. After complete drying, grids were examined by TEM at 120 kV (Philips/FEI Tecnai 12).
Lyophilized peptide powder was dissolved at 1 mg/ml in 25 mM phosphate buffer at pH 7.4. 5 μl of peptide solution was dropped on a discharged holey carbon coated grid (Ted Pella 01824). After removing excess peptide solution, 5 μl of phosphotungstic acid (2 wt %, pH=3.3) solution was then applied for 2 minutes. Samples were dried in air and examined by a FEI Tecnai 12 transmission electron microscope at 120 kV.

Data set [2] in a line: Differential scanning calorimetry (DSC) of micelles. To be noted: heating from 5° C. to 85° C.; solutions incubated at 20° C. for 16 hrs; FIG. 21A. On the procedure: DSC was performed on a VP-MicroCal calorimeter (GE). ˜600 μl of sample and buffer were loaded into two parallel stainless steel cells that were sealed tightly under the pressure of ˜27 psi to prevent water evaporation during the heating cycle. The temperature was increased from 5° to 85° C. at a rate of 1° C./min, with a 15 min equilibration time at 5° C. DSC thermograms were obtained after concentration normalization and baseline correction using the Origin software provided by the MicroCal.
For orientation: In DSC, transitions show as peaks or steps in heat flow.

Data set [3] in a line: Circular dichroism (CD), peptide helicity. As to conditions: CD spectra, same conditions, FIG. 31. How it is done: Temperature dependent CD measurements were made on a Jasco J810 spectropolarimeter. CD spectra were collected from 260 to 190 nm at 0.2 nm intervals, a rate of a 100 nm/min, a response time of 4 s, and a bandwidth of 1 nm. Temperature melt curves were measured using ˜200 μM solutions. The ellipticity was monitored at 222 nm as the temperature increased from 5° to 95° C. in 5° C. increments at a rate of 1° C./min, with a 1 min equilibration time at each temperature before the measurement was taken. One hundred percent helicity was estimated using the formula [θ]222=40,000[…][1−(2.5/n)].
(Circular dichroism is widely used to follow secondary structure.)

Substance “Conjugate 8: dC16 lipid, heme-binding 4-helix peptide BB (SEQ ID NO: 2), PEG2K (GGGEIWKLHEEFLCKFEELLKLHEERLKKM; also: dC16 lipid, place not given here, PEG2K, place not given here)” showed a particle/micelle diameter in data set [1] (TEM for conjugate 15) of roughly 12 nm. Besides, the “Particle Size” value in data set [1] is recorded as 10-15 nm.

On to “Conjugate 14: dC16 lipid, random coil control peptide SR (SEQ ID NO: 4), PEG2K (EGKAGEKAGAALKCGVQELEKGAEAGEGGW; also: dC16 lipid, place not given here, PEG2K, place not given here)”, for which the “Particle Size” value in data set [1] was 10-15 nm. In data set [2], the “DSC melting temperature / endothermic peak centre” value stood at 42 °C. Moreover, the helical content result in data set [3] is “less than 5%”.
